{"source": "paper PMC4932920", "origin": "cited, not measured here", "key": {"His103": {"target": "His103 (UniProt position 104, FKLLSHCLLVT)", "assay": "other (histidine H/D exchange)"}, "His143 [1]": {"target": "T1, His143 (UniProt position 144, ANALAHKYH--)", "assay": "NMR"}, "His117": {"target": "His117 (UniProt position 118, CVLAHHFGKEF)", "assay": "NMR"}, "His97 [2]": {"target": "T2, His97 (UniProt position 98, HCDKLHVDPEN)", "assay": "NMR"}, "His77 [3]": {"target": "T3, His77 (UniProt position 78, SDGLAHLDNLK)", "assay": "NMR"}, "His146 [4]": {"target": "T4, His146 (UniProt position 147, LAHKYH-----)", "assay": "NMR"}, "His143 [5]": {"target": "T1, His143", "assay": "other (H/D exchange of individual histidine residues)"}, "His97 [6]": {"target": "T2, His97", "assay": "other (H/D exchange of individual histidine residues)"}, "His77 [7]": {"target": "T3, His77", "assay": "other (H/D exchange of individual histidine residues)"}, "His146 [8]": {"target": "T4, His146", "assay": "other (H/D exchange of individual histidine residues)"}, "His112 [9]": {"target": "T5, His112 (UniProt position 113, VTLAAHLPAEF)", "assay": "NMR"}, "His89 [10]": {"target": "T6, His89 (UniProt position 90, SDLHAHKLRVD)", "assay": "NMR"}, "His50 [11]": {"target": "T7, His50 (UniProt position 51, HFDLSHGSAQV)", "assay": "NMR"}, "His72 [12]": {"target": "T8, His72 (UniProt position 73, TNAVAHVDDMP)", "assay": "NMR"}, "His20 [13]": {"target": "T9, His20 (UniProt position 21, GKVGAHAGEYG)", "assay": "NMR"}, "His112 [14]": {"target": "T5, His112", "assay": "other (H/D exchange of individual histidine residues)"}, "His89 [15]": {"target": "T6, His89", "assay": "other (H/D exchange of individual histidine residues)"}, "His50 [16]": {"target": "T7, His50", "assay": "other (H/D exchange of individual histidine residues)"}, "His72 [17]": {"target": "T8, His72", "assay": "other (H/D exchange of individual histidine residues)"}, "His20 [18]": {"target": "T9, His20", "assay": "other (H/D exchange of individual histidine residues)"}, "[19]": {"settings": "carbonmonoxy (CO-liganded) hemoglobin, R state"}}, "data": [{"substance": "Hemoglobin A (adult human hemoglobin), alpha chain residue titrated (Homo sapiens)", "values": [{"measurement": "pKa", "setting": "His103; [19]", "result": 7.1}, {"measurement": "pKa", "setting": "His103; deoxy hemoglobin, T state", "result": 7.1}]}, {"substance": "Hemoglobin A (adult human hemoglobin), beta chain (Homo sapiens)", "values": [{"measurement": "pKa", "setting": "His143 [1]; [19]", "result": 5.57}, {"measurement": "pKa", "setting": "His143 [1]; deoxy hemoglobin, T state", "result": 4.70}, {"measurement": "pKa", "setting": "His117; [19]", "result": 6.39}, {"measurement": "pKa", "setting": "His117; deoxy hemoglobin, T state", "result": 6.43}, {"measurement": "pKa", "setting": "His97 [2]; [19]", "result": 7.75}, {"measurement": "pKa", "setting": "His97 [2]; deoxy hemoglobin, T state", "result": 8.01}, {"measurement": "pKa", "setting": "His77 [3]; [19]", "result": 7.79}, {"measurement": "pKa", "setting": "His77 [3]; deoxy hemoglobin, T state", "result": 7.47}, {"measurement": "pKa", "setting": "His146 [4]; [19]", "result": 6.42}, {"measurement": "pKa", "setting": "His146 [4]; deoxy hemoglobin, T state", "result": 7.93}, {"measurement": "pKa", "setting": "His143 [5]; [19]", "result": 6.1}, {"measurement": "pKa", "setting": "His143 [5]; deoxy hemoglobin, T state", "result": 5.6}, {"measurement": "pKa", "setting": "His97 [6]; [19]", "result": 6.4}, {"measurement": "pKa", "setting": "His97 [6]; deoxy hemoglobin, T state", "result": 6.4}, {"measurement": "pKa", "setting": "His77 [7]; [19]", "result": 7.8}, {"measurement": "pKa", "setting": "His77 [7]; deoxy hemoglobin, T state", "result": 7.8}, {"measurement": "pKa", "setting": "His146 [8]; [19]", "result": 7.0}, {"measurement": "pKa", "setting": "His146 [8]; deoxy hemoglobin, T state", "result": 8.1}]}, {"substance": "Hemoglobin A (adult human hemoglobin), alpha chain (Homo sapiens)", "values": [{"measurement": "pKa", "setting": "His112 [9]; [19]", "result": 7.53}, {"measurement": "pKa", "setting": "His112 [9]; deoxy hemoglobin, T state", "result": 7.49}, {"measurement": "pKa", "setting": "His89 [10]; [19]", "result": 6.25}, {"measurement": "pKa", "setting": "His89 [10]; deoxy hemoglobin, T state", "result": 6.80}, {"measurement": "pKa", "setting": "His50 [11]; [19]", "result": 6.90}, {"measurement": "pKa", "setting": "His50 [11]; deoxy hemoglobin, T state", "result": 7.14}, {"measurement": "pKa", "setting": "His72 [12]; [19]", "result": 7.27}, {"measurement": "pKa", "setting": "His72 [12]; deoxy hemoglobin, T state", "result": 7.47}, {"measurement": "pKa", "setting": "His20 [13]; [19]", "result": 7.08}, {"measurement": "pKa", "setting": "His20 [13]; deoxy hemoglobin, T state", "result": 7.02}, {"measurement": "pKa", "setting": "His112 [14]; [19]", "result": 8.1}, {"measurement": "pKa", "setting": "His112 [14]; deoxy hemoglobin, T state", "result": 8.1}, {"measurement": "pKa", "setting": "His89 [15]; [19]", "result": 5.6}, {"measurement": "pKa", "setting": "His89 [15]; deoxy hemoglobin, T state", "result": 7.2}, {"measurement": "pKa", "setting": "His50 [16]; [19]", "result": 7.1}, {"measurement": "pKa", "setting": "His50 [16]; deoxy hemoglobin, T state", "result": 7.2}, {"measurement": "pKa", "setting": "His72 [17]; [19]", "result": 7.1}, {"measurement": "pKa", "setting": "His72 [17]; deoxy hemoglobin, T state", "result": 7.3}, {"measurement": "pKa", "setting": "His20 [18]; [19]", "result": 7.0}, {"measurement": "pKa", "setting": "His20 [18]; deoxy hemoglobin, T state", "result": 7.6}]}]}
